Experiment [1] addresses human CCR8 (human) (UniProt P51685). Description: cell-based or functional assay.
The target is the same in experiment [2]. Description: flow cytometry on CHOK1-hCCR8 cells.
For experiment [3] the target is unchanged. Description: flow cytometry on HuT78 cells (endogenous CCR8).
Experiment [4] has the same target. Description: flow cytometry on 293F-hCCR8 cells. In general terms: A flow cytometer gives signals particle by particle.
Experiment [5] shares this target. Description: flow cytometry on 293F-hCCR8 cells. The source holds these as a separate data set.
For experiment [6] the target is unchanged. The experiment in a line: flow cytometry on 293F-hCCR8 cells. This is another data set of the same source.
Experiment [7] deals with cynomolgus CCR8 (cynomolgus monkey). The experiment in a line: flow cytometry on 293T-cynoCCR8 cells.
Experiment [8] has the same target. The experiment in a line: flow cytometry on 293T-cynoCCR8 cells. This is another data set of the same source.
Experiment [9] concerns the target human CCR8 (human) (UniProt P51685). Description: flow cytometry, competition with 10 nM AF647-human CCL1 on 293F-hCCR8 cells.
For experiment [10] the target is unchanged. The experiment is described as above. This is another data set of the same source.
For experiment [11] the target is unchanged. The description is as above. This is another data set of the same source.

Read-outs that look alike come from different tables or passages of the source.

Chain of human CCR8 (human) (P51685 whole entry): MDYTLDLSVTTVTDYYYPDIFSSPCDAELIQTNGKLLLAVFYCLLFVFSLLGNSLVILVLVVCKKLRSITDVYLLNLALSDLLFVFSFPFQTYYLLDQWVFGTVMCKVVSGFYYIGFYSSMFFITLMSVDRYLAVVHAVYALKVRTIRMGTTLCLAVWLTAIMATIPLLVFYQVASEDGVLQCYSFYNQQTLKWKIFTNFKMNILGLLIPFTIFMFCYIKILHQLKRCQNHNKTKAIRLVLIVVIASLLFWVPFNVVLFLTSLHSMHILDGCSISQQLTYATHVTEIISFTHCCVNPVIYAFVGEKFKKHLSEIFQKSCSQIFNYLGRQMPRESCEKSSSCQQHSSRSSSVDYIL

B1: B16_hIgG1 (antibody, from another filing, V domains shown)
VH: EVQLVESGGGLVQPGGSLKLSCAASGFTFNTYAMNWVRQASGKGLEWVGRIRSKSNNYATYYADSVKDRFTISRDDSKNTAYLQMNSLKTEDTAVYYCVRGLLRYRFFDVWGQGTTVTVSS
VL: DIVMTQSPLSLPVTPGEPASISCRSSKSLLHSNGNTYLYWFLQKPGQSPQLLIYRMSNLASGVPDRFSGSGSGTDFTLKISRVEAEDVGVYYCMQHLEYPFTFGGGTKVEIKR
The term EC50 denotes the concentration at which the effect is half-maximal. Consider B1, for which, in the experiment with human CCR8 (human) [1], the EC50 of ADCC effect (lysis%) by human PBMCs on CHOK1-hCCR8 cells was found to be 0.00238 µg/mL, the EC50 of activation of Jurkat-human FcγRIIIa(158V)-NFAT with 293F-hCCR8 target cells stood at 0.0131 µg/mL and the EC50 of activation of Jurkat-human FcγRIIIa(158V)-NFAT with CHOK1-hCCR8 target cells came out at 0.0265 µg/mL. The EC50 with human CCR8 (human) [2] worked out at 0.0356 µg/mL. This molecule also showed an EC50 in the experiment with human CCR8 (human) [3] of 0.0364 µg/mL.

B2: 4A19_hIgG1 (antibody, from another filing, V domains shown)
VH: QVQLVQSGAEVKKPGASVKVSCKASGYTFTDSEMHWVRQATGQGLEWMGAIQPETGGTAYNQKFKARVTMTRDTSISTAYMELSSLRSEDTAVYYCARRRRNFDYWGQGTLVTVSS
VL: DIVMTQTPLSLSVTPGQPASISCRSSQSLFHSSGNTYLHWYLQKPGQPPQLLIYKVSNRFSGVPDRFSGSGSGTDFTLKISRVEAEDVGVYYCSQSTHVPFTFGQGTKLEIKR
B2 came in with an EC50 of activation of Jurkat-human FcγRIIIa(158V)-NFAT with CHOK1-hCCR8 target cells with human CCR8 (human) [1] of 0.0141 µg/mL.

B3: 559E1B10_hzH0L0_hIgG1 (antibody, V domains shown)
VH: QVQLVQSGAEVKKPGASVKVSCKASGYTFTDYYVNWVRQAPGQGLEWMGVINPHNGDTRYNQKFKGRVTMTRDTSTSTVYMELSSLRSEDTAVYYCASWLRRGYYFDSWGQGTTVTVSS
VL: EIVLTQSPATLSLSPGERATLSCRASQSISDYLHWYQQKPGQAPRLLIYYVSQSISGIPARFSGSGSGTDFTLTISSLEPEDFAVYYCQNGHSFPLTFGGGTKVEIKR
B3 yielded an EC50 of activation of Jurkat-human FcγRIIIa(158V)-NFAT with 293F-hCCR8 target cells in the experiment with human CCR8 (human) [1] of 0.855 µg/mL.

B4: 559E1B10_hzH1L0_hIgG1 (antibody, V domains shown)
VH: QVQLVQSGAEVKKPGASVKVSCKASGYTFTDYYVNWVRQAPGQGLEWMGVINPHNGDTRYNQKFKGRVTMTVDKSTSTVYMELSSLRSEDTAVYYCASWLRRGYYFDSWGQGTTVTVSS
VL: EIVLTQSPATLSLSPGERATLSCRASQSISDYLHWYQQKPGQAPRLLIYYVSQSISGIPARFSGSGSGTDFTLTISSLEPEDFAVYYCQNGHSFPLTFGGGTKVEIKR
Regarding B4, in the experiment with human CCR8 (human) [1], the EC50 of activation of Jurkat-human FcγRIIIa(158V)-NFAT with 293F-hCCR8 target cells turned out to be 1.69 µg/mL.

B5: 559E1B10_hzH2L0_hIgG1 (antibody, V domains shown)
VH: QVQLVQSGAEVKKPGASVKVSCKASGYTFTDYYVNWVRQAPGQGLEWIGVINPHNGDTRYNQKFKGRATLTVDKSTSTVYMELSSLRSEDTAVYYCASWLRRGYYFDSWGQGTTVTVSS
VL: EIVLTQSPATLSLSPGERATLSCRASQSISDYLHWYQQKPGQAPRLLIYYVSQSISGIPARFSGSGSGTDFTLTISSLEPEDFAVYYCQNGHSFPLTFGGGTKVEIKR
In the experiment with human CCR8 (human) [1], B5 registered an EC50 of activation of Jurkat-human FcγRIIIa(158V)-NFAT with 293F-hCCR8 target cells of 0.706 µg/mL.

B6: anti-human CCR8 433H (antibody, from another filing, V domains shown)
VH: EVQLVETGGGLVQPKGSLRLSCAASGFPFNTFAMNWVRQAPGKGLEWLARIRSKSNNYATYYADSVKDRFTISRDDSRRMLYLLMNNVKFEDTAIYYCVRGKENNYGYAMDYWGQGTSVTVSS
VL: DIVMTQAAPSVPVTPGESVSISCRSSQSLLHSNGNTYLYWFLQRPGQSPQLLIYRMSNLASGVPDRFSGSGSGTAFTLRISRVEAEDVGVYYCMQHLEYPFTFGIGTKLELKR
For orientation: IC50 means the concentration that inhibits the measured activity by half. Higher therefore signals weaker potency in that assay. With B6, the IC50 of blockade of CCL1-induced β-arrestin recruitment in the experiment with human CCR8 (human) [1] amounted to 2.36 µg/mL. In the experiment with human CCR8 (human) [1], the IC50 of blockade of CCL1-induced β-arrestin recruitment (Tango-H CCR8-CHO-K1 cells) was determined as 1.29 µg/mL. For the same molecule, the EC50 is 0.206 µg/mL with human CCR8 (human) [4]; 0.153 µg/mL in the experiment with human CCR8 (human) [5]; 0.156 µg/mL with human CCR8 (human) [6]; 0.0788 µg/mL with human CCR8 (human) [2]; 15.3 µg/mL in experiment [7]; 14.6 µg/mL in experiment [8]. In the experiment with human CCR8 (human) [3], the EC50 worked out at 0.0763 µg/mL. For the same molecule, the IC50 with human CCR8 (human) [9] turned out to be 0.0943 µg/mL; in the experiment with human CCR8 (human) [10], 0.0705 µg/mL; with human CCR8 (human) [11], 0.0965 µg/mL.

These data come from EP4624492A1.
